The chains are these.
B1: PRT-383 (protein)
chain: MVTSVWTKGVTPPTNFTYGEDVLHAPYVANQGWYDITKTFNGKDDLLCGAATAGNMLHWWFDQNKEQIENYLKKHPEKQKINFNGEQMFDVKEAIDTKDSQLDSKLFDYFKEKAFPYLSTKHLGVFPDHVIDMFINGYRLSLTNHGPTPVKRGSKDPRGGIFDAVFTRGDQSKLLTNRHDFKEKTLKEISDLIKQELTEGKALGISHTYANVRINHVINLWGADFDAEGNLEAIYVTDSDSNASIGMKKYFVGVNSNGKVAISAKEIEEDNIGAQVLGLFTLSTGQDIWNQTN
B2: PRT-392 (protein)
chain: B1 chain with D108E, D170V
B3: PRT-384 (protein)
chain: B1 chain with D108E, Y117N
B4: PRT-391 (protein)
chain: B1 chain with D108E, P157K
B5: PRT-422 (protein)
chain: MTITSVWTKGVTPPTPEDFRYNNEDVLHAPYVANQGWYDITKTFDGKDNLLCGAATAGNMLHWWFDQNKEEIERYLKKHPEKQKIIFNNQELFDVKAAIDTKDSQTNSKLFNYFRDKAFPNLSARQLGVMPDLVLDMFINGYYLNLGKTQSTDVNRPYQDKDKRGGIFDAVFTRGDQTTLLTARHDLKNKGLNEISDLIKQELTEGKALALSHTYANVRINHVINLWGADFDAEGNLIAIYVTDSDANPSIGMKKYFVGVNANGKVAISAKKIEGDNIGAQVLGLFTLSTGQDIWQKLS
B6: PRT-423 (protein)
chain: B5 chain with P249A, V260R
B7: PRT-415 (protein)
chain: B5 chain with R115L, P249A
B8: PRT-437 (protein)
chain: MSQTEDSESLQRLRDIEDFQAEKKKQNVVYTKWLDGVDVKDHDFRKIVDGNEAYYATPLLNGRGFYDINKDFNRDSDKCAAAVAANMFHYWLDRNRDNVDRFLRQNPEKHGIIELPDGQLKLSDFLNTYESDDGYRDKSKLFDFISNNFNGPVWTDKLLDNYINGYAYNYKYGRTIEDPTKNTSKINFFKEVFNEKILTNNHSIRNQNEFSVLLSEALYTGKAIGLSYGPAGLRHSLGHIISVWGADLDADGNVVAIYVTDSDDKKLTIGDERVGLKRYKISTDDEGRLRLTAYEETHNTGGQIRGLWTLDTGKQAWADYFDKTEQTGTDQAEQ
B9: PRT-439 (protein)
chain: B8 chain with E52I, T175L
B10: PRT-399 (protein)
chain: MVTSVWTKGVTPPADFTQGEDVFHAPYVANQGWYDITKTFNGKDDLLCGAATAGNMLHWWFDQNKEYIEAYLKKHPEKQKIMFGDQELLDVRKAINTKGSQKNSELFNYFRDKAFPNLSARRLGVMPDLVLDMFINGYYLNVTKTQTTDVNRTYQEKDKRGGIFDAVFTRGDQSKLLTSRHDFKEKGLKEISDLIKQELTEGKALGLSHTYANVRINHVINLWGADFDSDGNLKAIYVTDSDSNASIGMKKYVVGVNSAGKVAISAKEIKEDNIGAQVLGLFTLSTGQDIWNQTN
B11: PRT-400 (protein)
chain: B10 chain with V28D, V253F
B12: PRT-407 (protein)
chain: B10 chain with M82I, V253F

Positions count from the first letter of the chain named.

The data set has as its target pooled human IgG (human IgG1, 2, 3 and 4).
Turning to B1, the Enzyme Activity Endpoint Assay (purified): Fab′2 turned out to be 581 ng/µL, the Enzyme Activity Endpoint Assay (purified): Fc is 379 ng/µL, the Enzyme Activity Endpoint Assay (purified): IgG amounted to 0 ng/µL and the Enzyme Activity Endpoint Assay (purified): scIgG is 230 ng/µL. The protein further yielded an Enzyme Activity Endpoint Assay: Fab′2 of 581 ng/µL, an Enzyme Activity Endpoint Assay: Fc of 379 ng/µL, an Enzyme Activity Endpoint Assay: IgG of 0 ng/µL and an Enzyme Activity Endpoint Assay: scIgG of 230 ng/µL.
The protein B2 registered an Enzyme Activity Endpoint Assay (purified): Fab′2 of 513 ng/µL, an Enzyme Activity Endpoint Assay (purified): Fc of 354 ng/µL, an Enzyme Activity Endpoint Assay (purified): IgG of 0 ng/µL and an Enzyme Activity Endpoint Assay (purified): scIgG of 196 ng/µL. The Enzyme Activity Endpoint Assay: Fab′2 was 513 ng/µL, the Enzyme Activity Endpoint Assay: Fc was 354 ng/µL, the Enzyme Activity Endpoint Assay: IgG stood at 0 ng/µL and the Enzyme Activity Endpoint Assay: scIgG stood at 196 ng/µL.
Regarding B3, the Enzyme Activity Endpoint Assay (purified): Fab′2 was found to be 365 ng/µL, the Enzyme Activity Endpoint Assay (purified): Fc was found to be 0 ng/µL, the Enzyme Activity Endpoint Assay (purified): IgG worked out at 1510 ng/µL and the Enzyme Activity Endpoint Assay (purified): scIgG worked out at 0 ng/µL. The Enzyme Activity Endpoint Assay: Fab′2 came to 365 ng/µL, the Enzyme Activity Endpoint Assay: Fc worked out at 0 ng/µL, the Enzyme Activity Endpoint Assay: IgG worked out at 1510 ng/µL and the Enzyme Activity Endpoint Assay: scIgG was 0 ng/µL.
Protein B4 showed an Enzyme Activity Endpoint Assay (purified): Fab′2 of 498 ng/µL, an Enzyme Activity Endpoint Assay (purified): Fc of 361 ng/µL, an Enzyme Activity Endpoint Assay (purified): IgG of 29 ng/µL and an Enzyme Activity Endpoint Assay (purified): scIgG of 192 ng/µL. The same protein gave an Enzyme Activity Endpoint Assay: Fab′2 of 498 ng/µL, an Enzyme Activity Endpoint Assay: Fc of 361 ng/µL, an Enzyme Activity Endpoint Assay: IgG of 29 ng/µL and an Enzyme Activity Endpoint Assay: scIgG of 192 ng/µL.
In turn, B5 gave an Enzyme Activity Endpoint Assay (purified): Fab′2 of 494 ng/µL, an Enzyme Activity Endpoint Assay (purified): Fc of 348 ng/µL, an Enzyme Activity Endpoint Assay (purified): IgG of 69 ng/µL and an Enzyme Activity Endpoint Assay (purified): scIgG of 136 ng/µL. The protein further showed an Enzyme Activity Endpoint Assay: Fab′2 of 494 ng/µL, an Enzyme Activity Endpoint Assay: Fc of 348 ng/µL, an Enzyme Activity Endpoint Assay: IgG of 69 ng/µL and an Enzyme Activity Endpoint Assay: scIgG of 136 ng/µL.
Turning to B6, the Enzyme Activity Endpoint Assay (purified): Fab′2 is 398 ng/µL, the Enzyme Activity Endpoint Assay (purified): Fc came out at 0 ng/µL, the Enzyme Activity Endpoint Assay (purified): IgG came out at 1660 ng/µL and the Enzyme Activity Endpoint Assay (purified): scIgG was 0 ng/µL. Also, the Enzyme Activity Endpoint Assay: Fab′2 was 398 ng/µL, the Enzyme Activity Endpoint Assay: Fc was 0 ng/µL, the Enzyme Activity Endpoint Assay: IgG is 1660 ng/µL and the Enzyme Activity Endpoint Assay: scIgG amounted to 0 ng/µL.
The protein B7 showed an Enzyme Activity Endpoint Assay (purified): Fab′2 of 46 ng/µL, an Enzyme Activity Endpoint Assay (purified): Fc of 225 ng/µL, an Enzyme Activity Endpoint Assay (purified): IgG of 164 ng/µL and an Enzyme Activity Endpoint Assay (purified): scIgG of 630 ng/µL. Further, the Enzyme Activity Endpoint Assay: Fab′2 came to 46 ng/µL, the Enzyme Activity Endpoint Assay: Fc amounted to 225 ng/µL, the Enzyme Activity Endpoint Assay: IgG is 164 ng/µL and the Enzyme Activity Endpoint Assay: scIgG is 630 ng/µL.
B8 returned an Enzyme Activity Endpoint Assay (purified): Fab′2 of 445 ng/µL, an Enzyme Activity Endpoint Assay (purified): Fc of 306 ng/µL, an Enzyme Activity Endpoint Assay (purified): IgG of 0 ng/µL and an Enzyme Activity Endpoint Assay (purified): scIgG of 263 ng/µL. Moreover, the Enzyme Activity Endpoint Assay: Fab′2 amounted to 445 ng/µL, the Enzyme Activity Endpoint Assay: Fc is 306 ng/µL, the Enzyme Activity Endpoint Assay: IgG was found to be 0 ng/µL and the Enzyme Activity Endpoint Assay: scIgG turned out to be 263 ng/µL.
For B9, the Enzyme Activity Endpoint Assay (purified): Fab′2 amounted to 179 ng/µL, the Enzyme Activity Endpoint Assay (purified): Fc was 191 ng/µL, the Enzyme Activity Endpoint Assay (purified): IgG came out at 325 ng/µL and the Enzyme Activity Endpoint Assay (purified): scIgG was 528 ng/µL. The protein also showed an Enzyme Activity Endpoint Assay: Fab′2 of 179 ng/µL, an Enzyme Activity Endpoint Assay: Fc of 191 ng/µL, an Enzyme Activity Endpoint Assay: IgG of 325 ng/µL and an Enzyme Activity Endpoint Assay: scIgG of 528 ng/µL.
Protein B10 registered an Enzyme Activity Endpoint Assay (purified): Fab′2 of 0 ng/µL, an Enzyme Activity Endpoint Assay (purified): Fc of 0 ng/µL, an Enzyme Activity Endpoint Assay (purified): IgG of 1580 ng/µL and an Enzyme Activity Endpoint Assay (purified): scIgG of 0 ng/µL. Moreover, the Enzyme Activity Endpoint Assay: Fab′2 was found to be 0 ng/µL, the Enzyme Activity Endpoint Assay: Fc amounted to 0 ng/µL, the Enzyme Activity Endpoint Assay: IgG was determined as 1580 ng/µL and the Enzyme Activity Endpoint Assay: scIgG was 0 ng/µL.
B11 yielded an Enzyme Activity Endpoint Assay (purified): Fab′2 of 556 ng/µL, an Enzyme Activity Endpoint Assay (purified): Fc of 333 ng/µL, an Enzyme Activity Endpoint Assay (purified): IgG of 176 ng/µL and an Enzyme Activity Endpoint Assay (purified): scIgG of 0 ng/µL. The protein further had an Enzyme Activity Endpoint Assay: Fab′2 of 556 ng/µL, an Enzyme Activity Endpoint Assay: Fc of 333 ng/µL, an Enzyme Activity Endpoint Assay: IgG of 176 ng/µL and an Enzyme Activity Endpoint Assay: scIgG of 0 ng/µL.
In turn, B12 returned an Enzyme Activity Endpoint Assay (purified): Fab′2 of 209 ng/µL, an Enzyme Activity Endpoint Assay (purified): Fc of 277 ng/µL, an Enzyme Activity Endpoint Assay (purified): IgG of 90 ng/µL and an Enzyme Activity Endpoint Assay (purified): scIgG of 396 ng/µL. Besides, the Enzyme Activity Endpoint Assay: Fab′2 is 209 ng/µL, the Enzyme Activity Endpoint Assay: Fc amounted to 277 ng/µL, the Enzyme Activity Endpoint Assay: IgG was 90 ng/µL and the Enzyme Activity Endpoint Assay: scIgG came to 396 ng/µL.

For the origin of these results see US20250027068.
